B1: hSIRT2 (36-356 aa), purified, thrombin-digested (domain or fragment, human, UniProt Q8IXJ6 36-356, looked up)
chain: ADMDFLRNLFSQTLSLGSQKERLLDELTLEGVARYMQSERCRRVICLVGAGISTSAGIPDFRSPSTGLYDNLEKYHLPYPEAIFEISYFKKHPEPFFALAKELYPGQFKPTICHYFMRLLKDKGLLLRCYTQNIDTLERIAGLEQEDLVEAHGTFYTSHCVSASCRHEYPLSWMKEKIFSEVTPKCEDCQSLVKPDIVFFGESLPARFFSCMQSDFLKVDLLLVMGTSLQVQPFASLISKAPLSTPRLLINKEKAGQSDPFLGMIMGLGGGMDFDSKKAYRDVAWLGECDQGCLALAELLGWKKELEDLVRREHASIDAQS
B2: GST-TULP3 (60-442 aa, construct-2) (domain or fragment, human, UniProt O75386 60-442, looked up)
chain: AKPRASDEQTPLVNCHTPHSNVILHGIDGPAAVLKPDEVHAPSVSSSVVEEDAENTVDTASKPGLQERLQKHDISESVNFDEETDGISQSACLERPNSASSQNSTDTGTSGSATAAQPADNLLGDIDDLEDFVYSPAPQGVTVRCRIIRDKRGMDRGLFPTYYMYLEKEENQKIFLLAARKRKKSKTANYLISIDPVDLSREGESYVGKLRSNLMGTKFTVYDRGICPMKGRGLVGAAHTRQELAAISYETNVLGFKGPRKMSVIIPGMTLNHKQIPYQPQNNHDSLLSRWQNRTMENLVELHNKAPVWNSDTQSYVLNFRGRVTQASVKNFQIVHKNDPDYIVMQFGRVADDVFTLDYNYPLCAVQAFGIGLSSFDSKLACE

Series [1] has as its target B2. Nature of the series: SPR. In general terms: SPR reads the build-up and loss of mass on a sensor chip optically.
Series [2] addresses T1, hSIRT1 (114-510 aa), purified, thrombin-digested (human, UniProt Q96EB6 114-510, NT-647 fluorescent dye (in the MST only)).
T1 sequence (looked up): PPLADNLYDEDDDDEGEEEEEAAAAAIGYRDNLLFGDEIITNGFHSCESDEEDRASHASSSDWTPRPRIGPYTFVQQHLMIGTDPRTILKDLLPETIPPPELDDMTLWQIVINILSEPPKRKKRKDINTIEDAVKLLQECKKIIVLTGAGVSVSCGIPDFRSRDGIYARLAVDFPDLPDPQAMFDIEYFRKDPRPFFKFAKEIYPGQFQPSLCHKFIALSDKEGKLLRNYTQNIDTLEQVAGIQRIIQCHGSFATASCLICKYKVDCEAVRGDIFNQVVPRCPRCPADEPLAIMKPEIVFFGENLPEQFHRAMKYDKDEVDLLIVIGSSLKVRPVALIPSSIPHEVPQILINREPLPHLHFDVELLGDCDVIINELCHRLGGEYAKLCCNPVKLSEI
Put plainly: SPR.

The series “native gel or EMSA” deals with the molecule itself. Put plainly: native gel or EMSA. For orientation: In EMSA bound probe runs differently from free probe, usually more slowly.
The series “SEC” deals with the molecule itself. Nature of the series: SEC. For orientation: In gel filtration, larger molecules generally elute earlier.
In series [3] the target is T1, hSIRT1 (114-510 aa), purified, …. Nature of the series: MST.
For series [4], the target named is B1. Put plainly: SPR.

Several values for one entry are separate records, joined by “and”; a condition that tells them apart may be missing. Equal entries are not always repeated.

The Kd is the concentration at which binding is half-saturated. A higher Kd goes with lower affinity. By stoichiometry N is commonly meant a count of units in the complex or per binding partner.

With B1, in series [1], the Kd is 66.7 µM and 66.5 µM.

The molecule B2 gave a Kd in series [2] of 8.1 µM.

B3: deleted hTULP3 (60-442 aa, construct-2), GST tag removed (domain or fragment, human, UniProt O75386 60-442, looked up)
chain: AKPRASDEQTPLVNCHTPHSNVILHGIDGPAAVLKPDEVHAPSVSSSVVEEDAENTVDTASKPGLQERLQKHDISESVNFDEETDGISQSACLERPNSASSQNSTDTGTSGSATAAQPADNLLGDIDDLEDFVYSPAPQGVTVRCRIIRDKRGMDRGLFPTYYMYLEKEENQKIFLLAARKRKKSKTANYLISIDPVDLSREGESYVGKLRSNLMGTKFTVYDRGICPMKGRGLVGAAHTRQELAAISYETNVLGFKGPRKMSVIIPGMTLNHKQIPYQPQNNHDSLLSRWQNRTMENLVELHNKAPVWNSDTQSYVLNFRGRVTQASVKNFQIVHKNDPDYIVMQFGRVADDVFTLDYNYPLCAVQAFGIGLSSFDSKLACE
On to B3, for which the “stoichiometry N” value in the series “native gel or EMSA” amounted to 2.

B4: N-terminal hTULP3 (1-148 aa, construct-1), GST tag removed (domain or fragment, human, UniProt O75386 1-148, looked up)
chain: MEASRCRLSPSGDSVFHEEMMKMRQAKLDYQRLLLEKRQRKKRLEPFMVQPNPEARLRRAKPRASDEQTPLVNCHTPHSNVILHGIDGPAAVLKPDEVHAPSVSSSVVEEDAENTVDTASKPGLQERLQKHDISESVNFDEETDGISQ
On to B4, for which the “stoichiometry N” value in the series “SEC” is 2. Besides, in series [3], binding was put at a Kd of 28 µM.

B5: GST-tagged N-terminal hTULP3 (1-148 aa, construct-1) (domain or fragment, human, UniProt O75386 1-148, looked up)
chain: MEASRCRLSPSGDSVFHEEMMKMRQAKLDYQRLLLEKRQRKKRLEPFMVQPNPEARLRRAKPRASDEQTPLVNCHTPHSNVILHGIDGPAAVLKPDEVHAPSVSSSVVEEDAENTVDTASKPGLQERLQKHDISESVNFDEETDGISQ
For the molecule B5, in series [4], the binding result is on record as “binds”.

The values above are taken from publication doi:10.1101/2024.12.23.630205 (bioRxiv, 2024).
